Measured values reported in publication PMC3066130, “Molecular Architecture of the Human Mediator–RNA Polymerase II–TFIIF Assembly” (PLoS Biology, 2011).

Biological target: T1, human RNA polymerase II (12-subunit enzyme) (human, UniProt P24928 1-1970; P30876 1-1174; P19387 1-275; O15514 1-142; P19388 1-210; P61218 …)
T1 construct: RPB1, largest subunit of human pol II; RPB2, subunit of human pol II; RPB3, subunit of human pol II; RPB4, subunit of human pol II; RPB5, subunit of human pol II; RPB6, subunit of human pol II; RPB7, subunit of human pol II; RPB8, subunit of human pol II; RPB9, subunit of human pol II; RPB10, subunit of human pol II; RPB11, subunit of human pol II; RPB12, subunit of human pol II; The CTD of RPB1 …
Assay: co-sedimentation
Settings: both partners purified

binding result: binds
B1: human TFIIF (Rap74 and Rap30) (complex)
chain 1: MAALGPSSQNVTEYVVRVPKNTTKKYNIMAFNAADKVNFATWNQARLERDLSNKKIYQEEEMPESGAGSEFNRKLREEARRKKYGIVLKEFRPEDQPWLLRVNGKSGRKFKGIKKGGVTENTSYYIFTQCPDGAFEAFPVHNWYNFTPLARHRTLTAEEAEEEWERRNKVLNHFSIMQQRRLKDQDQDEDEEEKEKRGRRKASELRIHDLEDDLEMSSDASDASGEEGGRVPKAKKKAPLAKGGRKKKKKKGSDDEAFEDSDDGDFEGQEVDYMSDGSSSSQEEPESKAKAPQQEEGPKGVDEQSDSSEESEEEKPPEEDKEEEEEKKAPTPQEKKRRKDSSEESDSSEESDIDSEASSALFMAKKKTPPKRERKPSGGSSRGNSRPGTPSAEGGSTSSTLRAAASKLEQGKRVSEMPAAKRLRLDTGPQSLSGKSTPQPPSGKTTPNSGDVQVTEDAVRRYLTRKPMTTKDLLKKFQTKKTGLSSEQTVNVLAQILKRLNPERKMINDKMHFSLKE
chain 2: MAERGELDLTGAKQNTGVWLVKVPKYLSQQWAKASGRGEVGKLRIAKTQGRTEVSFTLNEDLANIHDIGGKPASVSAPREHPFVLQSVGGQTLTVFTESSSDKLSLEGIVVQRAECRPAASENYMRLKRLQIEESSKPVRLSQQLDKVVTTNYKPVANHQYNIEYERKKKEDGKRARADKQHVLDMLFSAFEKHQYYNLKDLVDITKQPVVYLKEILKEIGVQNVKGIHKNTWELKPEYRHYQGEEKSD
notes: Rap74, large subunit of human TFIIF; Rap30, small subunit of human TFIIF; also called dimeric TFIIF complex
